One series has as its system fibrinogen solution. Description: Stability of TGplPTH1-34 over time in fibrinogen solution stored at room temperature (HPLC-UV). The class given is physicochemical. The following applies: for TGplPTH1-34 content Mean ± SD / % loss of TGplPTH1-34: in fibrinogen solution; for TGplPTH1-34 content Mean ± SD: room temperature (20-25° C.); for % loss of TGplPTH1-34: room temperature. The procedure:
In order to evaluate the stability of TGplPTH1-34 in the fibrinogen component over time, TGplPTH1-34 was mixed with a fibrinogen solution and stored at room temperature.
TGplPTH1-34 was added to fibrinogen solution at a concentration of 266 μg/ml and incubated at room temperature for up to 34 days. Samples were taken at indicated time points and TGplPTH1-34 concentration was determined by HPLC. Briefly, TGplPTH1-34 was quantified with a HPLC-UV method using a Zorbax Agilent RP18 column (4.6×150 mmm, 5 μm, 300 A) for the separation of related substances. As eluent A: 0.1% TFA, 1% ACN in water and as eluent B: 0.1% TFA in ACN was used. The gradient was 0 min. 26% B; 15 min 38% B; 18 min. 90% B; 22 min 26% B; 24 min 26% B. The injection volume was 20 μl and the flow rate was 1 ml/min. The column temperature was 35° C. A reference standard was used for the calibration curve.
The results from the TGplPTH1-34 stability analysis in fibrinogen stored at room temperature (20-25° C.) for up to 34 days are shown in Table 2.

A further series addresses T1, fibrin matrix (Homo sapiens, UniProt P02671+P02675+P02679).
T1 construct: thrombin on one hand cleaves fibrinogen leading to fibrin polymers; purchased Baxter Healthcare AG (ARTISS®)
T1 sequence (P02671 36-866 limits assumed): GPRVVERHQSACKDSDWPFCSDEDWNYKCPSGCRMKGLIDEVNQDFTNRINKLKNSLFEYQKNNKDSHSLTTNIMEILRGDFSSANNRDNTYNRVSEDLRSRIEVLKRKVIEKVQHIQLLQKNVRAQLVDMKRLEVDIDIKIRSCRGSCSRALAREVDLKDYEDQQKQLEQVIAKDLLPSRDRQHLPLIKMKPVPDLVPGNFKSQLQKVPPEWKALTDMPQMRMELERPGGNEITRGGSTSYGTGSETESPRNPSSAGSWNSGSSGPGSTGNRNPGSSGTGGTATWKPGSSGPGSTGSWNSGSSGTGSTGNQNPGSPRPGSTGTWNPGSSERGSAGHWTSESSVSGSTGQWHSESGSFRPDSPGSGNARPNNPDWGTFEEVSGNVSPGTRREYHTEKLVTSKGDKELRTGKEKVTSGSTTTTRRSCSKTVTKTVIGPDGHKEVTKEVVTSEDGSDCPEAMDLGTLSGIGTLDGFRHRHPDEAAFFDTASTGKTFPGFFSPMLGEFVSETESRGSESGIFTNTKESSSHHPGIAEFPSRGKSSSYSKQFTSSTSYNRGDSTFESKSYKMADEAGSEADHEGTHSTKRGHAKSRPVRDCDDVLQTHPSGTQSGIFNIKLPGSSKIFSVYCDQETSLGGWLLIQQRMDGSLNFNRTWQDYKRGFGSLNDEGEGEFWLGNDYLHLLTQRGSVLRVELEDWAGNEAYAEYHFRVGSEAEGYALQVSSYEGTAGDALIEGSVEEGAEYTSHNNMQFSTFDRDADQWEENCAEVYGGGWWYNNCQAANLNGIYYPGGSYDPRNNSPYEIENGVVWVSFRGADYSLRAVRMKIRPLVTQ
T1 sequence (P02675 45-491 limits assumed): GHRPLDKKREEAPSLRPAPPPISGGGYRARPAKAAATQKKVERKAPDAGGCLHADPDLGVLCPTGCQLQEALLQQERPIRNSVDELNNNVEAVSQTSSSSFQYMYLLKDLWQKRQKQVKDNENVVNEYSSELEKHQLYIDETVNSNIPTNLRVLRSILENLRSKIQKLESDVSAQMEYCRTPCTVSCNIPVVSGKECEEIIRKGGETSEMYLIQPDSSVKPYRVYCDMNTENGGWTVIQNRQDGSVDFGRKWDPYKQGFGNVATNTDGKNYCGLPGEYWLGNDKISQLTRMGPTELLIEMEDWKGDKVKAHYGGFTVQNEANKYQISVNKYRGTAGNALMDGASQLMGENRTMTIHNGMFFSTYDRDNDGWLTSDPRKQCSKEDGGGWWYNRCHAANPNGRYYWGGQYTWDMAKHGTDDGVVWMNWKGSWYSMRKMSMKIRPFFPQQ
T1 sequence (P02679 27-433 limits assumed): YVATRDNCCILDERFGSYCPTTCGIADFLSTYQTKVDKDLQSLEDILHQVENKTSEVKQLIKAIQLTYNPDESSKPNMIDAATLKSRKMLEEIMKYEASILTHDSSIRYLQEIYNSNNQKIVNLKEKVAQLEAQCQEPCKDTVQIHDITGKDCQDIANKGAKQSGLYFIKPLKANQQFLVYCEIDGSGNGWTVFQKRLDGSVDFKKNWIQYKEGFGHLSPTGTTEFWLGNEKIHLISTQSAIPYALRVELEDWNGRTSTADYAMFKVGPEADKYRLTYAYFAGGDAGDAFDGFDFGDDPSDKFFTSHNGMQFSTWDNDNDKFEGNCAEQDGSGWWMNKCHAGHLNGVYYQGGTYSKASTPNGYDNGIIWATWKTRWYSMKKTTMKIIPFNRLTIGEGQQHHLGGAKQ
Description: Retention assay: covalent binding of TGplPTH1-34 to fibrin matrix (unbound peptide extracted, PTH1-34 ELISA). The following applies: for % unbound TGplPTH1-34 in fibrin matrix: 1 mg/ml final; for Average % unbound ± SD: both experiments. The procedure:
The percentage of covalent TGplPTH1-34 binding to fibrin matrices was determined in fibrin matrices prepared with two different methods using an indirect assay. With this assay, non-covalently bound TGplPTH1-34 that can be washed out of the matrix is determined. In the first method (pre-mixing), the two components of the fibrin sealant, ARTISS® were thawed and TGplPTH1-34 was premixed with the fibrinogen component at a concentration of 2 mg/ml. Immediately after mixing, the two components of the fibrin sealant were frozen again and stored at −20° C. The samples were then thawed, and the two components of the sealant were mixed. The final concentration of TGplPTH1-34 in mixed fibrin sealant was 1 mg/ml.
In the second method, the two fibrin sealant components were directly mixed with TGplPTH1-34 solubilized in water to achieve a final concentration of 1 mg/ml (see FIG. 1A).
To evaluate the amount of TGplPTH1-34 covalently bound to the fibrin matrix with the two methods, samples prepared by either of the two methods were subjected to a retention assay. Aliquots of 50 μl were added to 1.5 ml Eppendorf tubes. The fibrin matrices were then incubated at 37° C. for 1 hour. Unbound TGplPTH1-34 was extracted from the fibrin matrix by addition of 1.5 ml extraction buffer (50 mM Tris pH 9.4, 1M NaCl, 0.1% Tween 20) supplemented with protease Inhibitors (Roche Cat #11836153001 cOmplete™, Mini Protease Inhibitor Co) and incubated under constant shaking. After 3 hours the supernatant was collected and 1.5 ml of fresh extraction buffer was added to the fibrin matrix. This extraction step was repeated after 6, 24, 30 and 48 h. Collected supernatants were stored at −20° C. until further processing.
To determine the amount of unbound TGplPTH1-34, the 5 collected supernatants were thawed and pooled. TGplPTH1-34 in the pool was determined by ELISA with a commercial PTH1-34 ELISA kit (Immutopics, Cat *60-3900) following the manufacturer's recommendation. Two independent experiments (three samples per fibrin matrix and experiment) were performed with both preparation methods and the amount of TGplPTH1-34 not bound to the fibrin matrix was determined.

“And” between values parts separate entries of the source, which are not always exact repeats. Equal entries are not always repeated.

As for “TGplPTH1-34: PTH fusion peptide: TG substrate domain, plasmin cleavage site, PTH1-34; NQEQVSPLYKNRSVSEIQLMHNLGKHLNSMERVEWLRKKLQDVHNF (Synthetic fusion protein)”, the “% of the product degraded” value in the series with fibrinogen solution (3-5 days in fibrinogen solution at room temperature (time frame for manufacturing)) was 4.3-7.8%. For the same substance, the “TGplPTH1-34 content Mean ± SD” value came to 232 ± 0.99 µg/mL with fibrinogen solution (day 0, added at 266 μg/ml); 222 ± 0.80 µg/mL in the series with fibrinogen solution (day 3); 214 ± 1.48 µg/mL in the series with fibrinogen solution (day 5); 208 ± 1.76 µg/mL with fibrinogen solution (day 7); 192 ± 2.28 µg/mL with fibrinogen solution (day 14); 176 ± 1.57 µg/mL in the series on fibrinogen solution (day 21). The “TGplPTH1-34 content Mean ± SD” value amounted to 172 ± 2.51 µg/mL with fibrinogen solution (day 29) and 167 ± 1.2 µg/mL in the series on fibrinogen solution (day 34). The “% loss of TGplPTH1-34” value with fibrinogen solution (day 3) is −4.3%; in the series with fibrinogen solution (day 5), −7.8%; with fibrinogen solution (day 7), −10.3%; in the series with fibrinogen solution (day 14), −17.2%; in the series on fibrinogen solution (day 21), −24.1%; in the series on fibrinogen solution (day 29), −25.9%. Also, the “% loss of TGplPTH1-34” value with fibrinogen solution (day 34) is recorded as −28.0%. The “degradation of the fusion peptide in fibrinogen solution” value in the series with fibrinogen solution (exposure for more than 5 days at room temperature) is given as “substantial degradation”. The “% unbound TGplPTH1-34 in fibrin matrix” value with fibrin matrix (First method (pre-mixing with fibrinogen component, refrozen), Experiment 1, samples 1-3) is 16.8% and 14.4% and 13.9%; with fibrin matrix (First method (pre-mixing with fibrinogen component, refrozen), Experiment 2, samples 1-3), 14.7% and 10.2% and 15.1%; with fibrin matrix (Second method (sealant components directly mixed with TGplPTH1-34 in water), Experiment 1, samples 1-3) it was 13.9% and 11.3% and 15.4%; with fibrin matrix (Second method (sealant components directly mixed with TGplPTH1-34 in water), Experiment 2, samples 1-3), 14.4% and 14.7%. Also, the “Average % unbound ± SD” value with fibrin matrix (First method (pre-mixing)) stood at 14.2 ± 2.2%; with fibrin matrix (Second method (direct mixing)), 14.0 ± 1.4%.
